Laboratory results as given in paper PMC10786891, “Massively parallel profiling of RNA-targeting CRISPR-Cas13d”.

T1: EsCas13d, nuclease-dead (Eubacterium siraeum, UniProt B0MS50, R295A;H300A;R849A;H854A)
T1 sequence: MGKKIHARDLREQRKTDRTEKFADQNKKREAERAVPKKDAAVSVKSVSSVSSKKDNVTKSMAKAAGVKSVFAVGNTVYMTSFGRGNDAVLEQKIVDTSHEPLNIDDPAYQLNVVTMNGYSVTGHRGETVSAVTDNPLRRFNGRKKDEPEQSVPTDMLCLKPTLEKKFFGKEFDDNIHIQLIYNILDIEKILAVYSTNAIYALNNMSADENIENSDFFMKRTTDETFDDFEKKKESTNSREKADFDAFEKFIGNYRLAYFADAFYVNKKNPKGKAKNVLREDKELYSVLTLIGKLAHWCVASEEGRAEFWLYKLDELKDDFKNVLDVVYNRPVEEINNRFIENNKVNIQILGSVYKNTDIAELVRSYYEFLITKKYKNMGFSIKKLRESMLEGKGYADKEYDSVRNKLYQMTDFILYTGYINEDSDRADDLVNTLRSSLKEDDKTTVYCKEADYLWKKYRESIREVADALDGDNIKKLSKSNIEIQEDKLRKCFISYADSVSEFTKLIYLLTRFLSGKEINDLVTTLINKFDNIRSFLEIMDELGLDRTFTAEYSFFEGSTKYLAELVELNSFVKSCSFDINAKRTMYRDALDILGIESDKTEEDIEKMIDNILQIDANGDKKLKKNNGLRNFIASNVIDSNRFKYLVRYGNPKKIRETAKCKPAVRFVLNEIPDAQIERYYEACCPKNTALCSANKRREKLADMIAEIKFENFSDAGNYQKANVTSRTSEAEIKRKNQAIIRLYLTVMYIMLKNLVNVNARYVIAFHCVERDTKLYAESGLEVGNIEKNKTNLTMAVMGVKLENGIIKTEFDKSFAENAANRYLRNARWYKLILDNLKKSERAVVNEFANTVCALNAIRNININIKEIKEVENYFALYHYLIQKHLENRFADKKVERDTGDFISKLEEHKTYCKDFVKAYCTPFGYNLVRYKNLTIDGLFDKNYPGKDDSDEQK

B1: target 1 insA 3' of 21,insG 3' of 16 (mixed)
RNA 1: CACCCGUGCAAAAAUGCAGGGGUCUAAAACUGAGCGGAUAACCUCUCUAUGG
RNA 2: GGGAAUGGAUCCACAUCUACGAAUUCGUACCAAUAGAGGAGGUUAUCCGCUCACCGAGAUCGGAAGAGCACACGU
B2: target 1 complement block 6-9 (mixed)
RNA 1: CACCCGUGCAAAAAUGCAGGGGUCUAAAACUGAGCGGAUAACCUCUCUAUGG
RNA 2: GGGAAUGGAUCCACAUCUACGAAUUCGUACCAUAGAGAGGUUUAGGGCUCACCGAGAUCGGAAGAGCACACGU
B3: target 1 A1U,C6A (mixed)
RNA 1: CACCCGUGCAAAAAUGCAGGGGUCUAAAACUGAGCGGAUAACCUCUCUAUGG
RNA 2: GGGAAUGGAUCCACAUCUACGAAUUCGUACCAUAGAGAGGUUAUCAGCUCUCCGAGAUCGGAAGAGCACACGU
B4: target 1 G12U,A18G (mixed)
RNA 1: CACCCGUGCAAAAAUGCAGGGGUCUAAAACUGAGCGGAUAACCUCUCUAUGG
RNA 2: GGGAAUGGAUCCACAUCUACGAAUUCGUACCAUGGAGAGUUUAUCCGCUCACCGAGAUCGGAAGAGCACACGU
B5: target 1 insC 3' of 9,insA 3' of 4 (mixed)
RNA 1: CACCCGUGCAAAAAUGCAGGGGUCUAAAACUGAGCGGAUAACCUCUCUAUGG
RNA 2: GGGAAUGGAUCCACAUCUACGAAUUCGUACCAUAGAGAGGUUACUCCGCAUCACCGAGAUCGGAAGAGCACACGU
B6: target 1 U3G,G5A (mixed)
RNA 1: CACCCGUGCAAAAAUGCAGGGGUCUAAAACUGAGCGGAUAACCUCUCUAUGG
RNA 2: GGGAAUGGAUCCACAUCUACGAAUUCGUACCAUAGAGAGGUUAUCCACGCACCGAGAUCGGAAGAGCACACGU
B7: target 1 C6A (mixed)
RNA 1: CACCCGUGCAAAAAUGCAGGGGUCUAAAACUGAGCGGAUAACCUCUCUAUGG
RNA 2: GGGAAUGGAUCCACAUCUACGAAUUCGUACCAUAGAGAGGUUAUCAGCUCACCGAGAUCGGAAGAGCACACGU
B8: target 1 insA 3' of 6,insU 3' of 4 (mixed)
RNA 1: CACCCGUGCAAAAAUGCAGGGGUCUAAAACUGAGCGGAUAACCUCUCUAUGG
RNA 2: GGGAAUGGAUCCACAUCUACGAAUUCGUACCAUAGAGAGGUUAUCCAGCUUCACCGAGAUCGGAAGAGCACACGU
B9: target 1 insU 3' of 9,insA 3' of 6 (mixed)
RNA 1: CACCCGUGCAAAAAUGCAGGGGUCUAAAACUGAGCGGAUAACCUCUCUAUGG
RNA 2: GGGAAUGGAUCCACAUCUACGAAUUCGUACCAUAGAGAGGUUAUUCCAGCUCACCGAGAUCGGAAGAGCACACGU
B10: target 1 del11,del13 (mixed)
RNA 1: CACCCGUGCAAAAAUGCAGGGGUCUAAAACUGAGCGGAUAACCUCUCUAUGG
RNA 2: GGGAAUGGAUCCACAUCUACGAAUUCGUACCAUAGAGAGUAUCCGCUCACCGAGAUCGGAAGAGCACACGU
B11: target 1 insU 3' of 18,insU 3' of 1 (mixed)
RNA 1: CACCCGUGCAAAAAUGCAGGGGUCUAAAACUGAGCGGAUAACCUCUCUAUGG
RNA 2: GGGAAUGGAUCCACAUCUACGAAUUCGUACCAUAUGAGAGGUUAUCCGCUCAUCCGAGAUCGGAAGAGCACACGU
B12: target 1 insG 3' of 19,insA 3' of 15 (mixed)
RNA 1: CACCCGUGCAAAAAUGCAGGGGUCUAAAACUGAGCGGAUAACCUCUCUAUGG
RNA 2: GGGAAUGGAUCCACAUCUACGAAUUCGUACCAUGAGAGAAGGUUAUCCGCUCACCGAGAUCGGAAGAGCACACGU
B13: target 1 insA 3' of 19,insA 3' of 11 (mixed)
RNA 1: CACCCGUGCAAAAAUGCAGGGGUCUAAAACUGAGCGGAUAACCUCUCUAUGG
RNA 2: GGGAAUGGAUCCACAUCUACGAAUUCGUACCAUAAGAGAGGUAUAUCCGCUCACCGAGAUCGGAAGAGCACACGU
B14: target 1 insU 3' of 5,insC 3' of 5 (mixed)
RNA 1: CACCCGUGCAAAAAUGCAGGGGUCUAAAACUGAGCGGAUAACCUCUCUAUGG
RNA 2: GGGAAUGGAUCCACAUCUACGAAUUCGUACCAUAGAGAGGUUAUCCGUCCUCACCGAGAUCGGAAGAGCACACGU
B15: target 1 del9,del13 (mixed)
RNA 1: CACCCGUGCAAAAAUGCAGGGGUCUAAAACUGAGCGGAUAACCUCUCUAUGG
RNA 2: GGGAAUGGAUCCACAUCUACGAAUUCGUACCAUAGAGAGUUUCCGCUCACCGAGAUCGGAAGAGCACACGU
B16: target 1 U8A,G12U (mixed)
RNA 1: CACCCGUGCAAAAAUGCAGGGGUCUAAAACUGAGCGGAUAACCUCUCUAUGG
RNA 2: GGGAAUGGAUCCACAUCUACGAAUUCGUACCAUAGAGAGUUUAACCGCUCACCGAGAUCGGAAGAGCACACGU
B17: target 1 insC 3' of 17,insU 3' of 5 (mixed)
RNA 1: CACCCGUGCAAAAAUGCAGGGGUCUAAAACUGAGCGGAUAACCUCUCUAUGG
RNA 2: GGGAAUGGAUCCACAUCUACGAAUUCGUACCAUAGCAGAGGUUAUCCGUCUCACCGAGAUCGGAAGAGCACACGU
B18: target 1 insA 3' of 21,insA 3' of 11 (mixed)
RNA 1: CACCCGUGCAAAAAUGCAGGGGUCUAAAACUGAGCGGAUAACCUCUCUAUGG
RNA 2: GGGAAUGGAUCCACAUCUACGAAUUCGUACCAAUAGAGAGGUAUAUCCGCUCACCGAGAUCGGAAGAGCACACGU
B19: target 1 G13A,A14U (mixed)
RNA 1: CACCCGUGCAAAAAUGCAGGGGUCUAAAACUGAGCGGAUAACCUCUCUAUGG
RNA 2: GGGAAUGGAUCCACAUCUACGAAUUCGUACCAUAGAGUAGUUAUCCGCUCACCGAGAUCGGAAGAGCACACGU
B20: target 1 insU 3' of 9,insU 3' of 6 (mixed)
RNA 1: CACCCGUGCAAAAAUGCAGGGGUCUAAAACUGAGCGGAUAACCUCUCUAUGG
RNA 2: GGGAAUGGAUCCACAUCUACGAAUUCGUACCAUAGAGAGGUUAUUCCUGCUCACCGAGAUCGGAAGAGCACACGU
B21: target 1 insA 3' of 5,insU 3' of 2 (mixed)
RNA 1: CACCCGUGCAAAAAUGCAGGGGUCUAAAACUGAGCGGAUAACCUCUCUAUGG
RNA 2: GGGAAUGGAUCCACAUCUACGAAUUCGUACCAUAGAGAGGUUAUCCGACUCUACCGAGAUCGGAAGAGCACACGU
B22: target 1 insC 3' of 10,insA 3' of 5 (mixed)
RNA 1: CACCCGUGCAAAAAUGCAGGGGUCUAAAACUGAGCGGAUAACCUCUCUAUGG
RNA 2: GGGAAUGGAUCCACAUCUACGAAUUCGUACCAUAGAGAGGUUCAUCCGACUCACCGAGAUCGGAAGAGCACACGU
B23: target 1 del13 (mixed)
RNA 1: CACCCGUGCAAAAAUGCAGGGGUCUAAAACUGAGCGGAUAACCUCUCUAUGG
RNA 2: GGGAAUGGAUCCACAUCUACGAAUUCGUACCAUAGAGAGUUAUCCGCUCACCGAGAUCGGAAGAGCACACGU
B24: target 1 insA 3' of 19,insU 3' of 12 (mixed)
RNA 1: CACCCGUGCAAAAAUGCAGGGGUCUAAAACUGAGCGGAUAACCUCUCUAUGG
RNA 2: GGGAAUGGAUCCACAUCUACGAAUUCGUACCAUAAGAGAGGUUUAUCCGCUCACCGAGAUCGGAAGAGCACACGU
B25: target 1 C6A,C7A (mixed)
RNA 1: CACCCGUGCAAAAAUGCAGGGGUCUAAAACUGAGCGGAUAACCUCUCUAUGG
RNA 2: GGGAAUGGAUCCACAUCUACGAAUUCGUACCAUAGAGAGGUUAUAAGCUCACCGAGAUCGGAAGAGCACACGU
B26: target 1 insU 3' of 20,insA 3' of 6 (mixed)
RNA 1: CACCCGUGCAAAAAUGCAGGGGUCUAAAACUGAGCGGAUAACCUCUCUAUGG
RNA 2: GGGAAUGGAUCCACAUCUACGAAUUCGUACCAUUAGAGAGGUUAUCCAGCUCACCGAGAUCGGAAGAGCACACGU
B27: target 1 U10G,A14C (mixed)
RNA 1: CACCCGUGCAAAAAUGCAGGGGUCUAAAACUGAGCGGAUAACCUCUCUAUGG
RNA 2: GGGAAUGGAUCCACAUCUACGAAUUCGUACCAUAGAGCGGUGAUCCGCUCACCGAGAUCGGAAGAGCACACGU
B28: target 1 C7G,U11A (mixed)
RNA 1: CACCCGUGCAAAAAUGCAGGGGUCUAAAACUGAGCGGAUAACCUCUCUAUGG
RNA 2: GGGAAUGGAUCCACAUCUACGAAUUCGUACCAUAGAGAGGAUAUGCGCUCACCGAGAUCGGAAGAGCACACGU

What follows are binders tested against T1, EsCas13d, nuclease-dead (assay: crRNA (strand 1, pre-loaded); Mg2+; 40 mM Tris-HCl pH 7.5, 150 mM NaCl, 6 mM MgCl2, 1 mM DTT, 0.1% Tween-20, 0.2 mg/ml BSA; 25 C; 10 min per concentration, then washed). Conditions: tags: His6-TwinStrep-SUMO cleaved; N-terminal SNAP kept (SNAP-Surface 488); label: 3' end held by stalled T7 RNA polymerase.

Question: With B1 as the binder, how does the Kd read?
Answer: The Kd was 51 ± 5 nM.

Question: How did the Kd turn out when B2 was run?
Answer: The Kd was 7.7 ± 0.5 nM.

Question: With B3 as the binder, how does the Kd read?
Answer: The Kd was 7.5 ± 0.4 nM.

Question: With B4 as the binder, how does the Kd read?
Answer: Its Kd is 78 ± 16 nM.

Question: Which Kd does the source give for B5 here?
Answer: Its Kd is 9.5 ± 1 nM.

Question: For B6, which Kd is on record?
Answer: Its Kd is 43 ± 4 nM.

Question: With B7 as the binder, how does the Kd read?
Answer: Its Kd is 6.17 ± 0.3 nM.

Question: With B8 as the binder, how does the Kd read?
Answer: Its Kd is 19.8 ± 1.1 nM.

Question: For B9, which Kd is on record?
Answer: The Kd was 23.5 ± 2.7 nM.

Question: For B10, which Kd is on record?
Answer: The Kd was 11.1 ± 0.9 nM.

Question: B11 was tested. Which Kd did it give?
Answer: The Kd was 33 ± 1.8 nM.

Question: B12 was tested. Which Kd did it give?
Answer: Its Kd is 56 ± 7 nM.

Question: For B13, which Kd is on record?
Answer: The Kd was 41.3 ± 2.2 nM.

Question: B14 was tested. Which Kd did it give?
Answer: Its Kd is 35 ± 4 nM.

Question: Which Kd does the source give for B15 here?
Answer: Its Kd is 21.3 ± 1.1 nM.

Question: How did the Kd turn out when B16 was run?
Answer: Its Kd is 13.1 ± 0.8 nM.

Question: For B17, which Kd is on record?
Answer: Its Kd is 35.2 ± 3.2 nM.

Question: For B18, which Kd is on record?
Answer: The Kd was 36.6 ± 2.9 nM.

Question: B19 was tested. Which Kd did it give?
Answer: The Kd was 6.6 ± 0.7 nM.

Question: How did the Kd turn out when B20 was run?
Answer: The Kd was 46 ± 6 nM.

Question: Which Kd does the source give for B21 here?
Answer: The Kd was 14.7 ± 0.9 nM.

Question: For B22, which Kd is on record?
Answer: The Kd was 10.4 ± 1.1 nM.

Question: For B23, which Kd is on record?
Answer: The Kd was 8.6 ± 0.6 nM.

Question: For B24, which Kd is on record?
Answer: The Kd was 17.9 ± 1.2 nM.

Question: How did the Kd turn out when B25 was run?
Answer: Its Kd is 7.47 ± 0.35 nM.

Question: For B26, which Kd is on record?
Answer: The Kd was 15.9 ± 1.1 nM.

Question: How did the Kd turn out when B27 was run?
Answer: Its Kd is 94 ± 23 nM.

Question: B28 was tested. Which Kd did it give?
Answer: The Kd was 25 ± 4 nM.
